The chains are these.
B1: MHGB665 v-region as scFv (E. coli supernatant) (scFv, V domains shown)
VH: QVQLQQSGPGLVKPSQTLSLTCAISGDSVSSNSAAWNWIRQSPSRGLEWLGRTYYRSKWYNDYAVSVKSRITINPDTSKNQISLQLNSVTPEDTAVYYCAGDRRYGIVGLPFAYWGQGTLVTVSS
VL: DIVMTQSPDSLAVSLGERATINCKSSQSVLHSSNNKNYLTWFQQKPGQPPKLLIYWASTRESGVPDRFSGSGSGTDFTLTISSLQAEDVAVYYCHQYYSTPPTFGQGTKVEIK
notes: One scFv chain
B2: MHGB694 v-region as scFv (E. coli supernatant) (scFv, V domains shown)
VH: EVQLLESGGGLVQPGGSLRLSCAASGFTFSSYAMHWVRQAPGKGLDWVSGISGSGFSTYYVDSVKGRFTISRDNSKHTLYLQMNSLRAEDTAVYYCAKDNLVAGTVFDYWGQGTLVTVSS
VL: not shown
notes: One scFv chain
B3: MHGB737 v-region as scFv (E. coli supernatant) (scFv, V domains shown)
VH: B2 VH with D46E, H77N
VL: not shown
notes: One scFv chain; also called MHGB737 (GL optimized B694)
B4: MHGB738 v-region as scFv (E. coli supernatant) (scFv, V domains shown)
VH: QVQLQQSGPGLVKPSQTLSLTCAISGDSVSSNRAAWNWIRQSPSRGLEWLGRTYYRSKWYNDYAVSVKSRITINPDTSKNQISLQLNSVTPEDTAVYYCARVRPGIPFDYWGQGTPVTVSS
VL: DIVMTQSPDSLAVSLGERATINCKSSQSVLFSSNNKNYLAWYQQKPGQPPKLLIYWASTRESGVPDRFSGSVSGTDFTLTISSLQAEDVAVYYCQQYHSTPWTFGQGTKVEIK
notes: One scFv chain; also called MHGB738 (GL optimized B688)
B5: DL3B582 (bispecific antibody)
heavy: QVQLVQSGAEVKKPGASVKVSCKASGNTFTNYYIHWVRQAPGQGLEWMGIINPSGGSTSYAQKLQGRMTMTRDTSTSTVYMELSSLRSEDTAVYFCARQGPFIGDAFDIWGQGTMVTVSSASTKGPSVFPLAPSSKSTSGGTAALGCLVKDYFPEPVTVSWNSGALTSGVHTFPAVLQSSGLYSLSSVVTVPSSSLGTQTYICNVNHKPSNTKVDKKVEPKSCDKTHTCPPCPAPEAAGGPSVFLFPPKPKDTLMISRTPEVTCVVVSVSHEDPEVKFNWYVDGVEVHNAKTKPREEQYNSTYRVVSVLTVLHQDWLNGKEYKCKVSNKALPAPIEKTISKAKGQPREPQVYVLPPSREEMTKNQVSLLCLVKGFYPSDIAVEWESNGQPENNYLTWPPVLDSDGSFFLYSKLTVDKSRWQQGNVFSCSVMHEALHNHYTQKSLSLSPG
light: DIQMTQSPSSLSASVGDRVTITCRASQGISNYLAWFQQKPGKAPKSLIYAASSLQSGVPSKFSGSGSGTDFTLTISSLQPEDFATYYCQQYNSYPYTFAQGTKLEIKRTVAAPSVFIFPPSDEQLKSGTASVVCLLNNFYPREAKVQWKVDNALQSGNSQESVTEQDSKDSTYSLSSTLTLSKADYEKHKVYACEVTHQGLSSPVTKSFNRGEC
scFv: DIQMTQSPSSLSASVGDRVTITCRARQSIGTAIHWYQQKPGKAPKLLIKYASESISGVPSRFSGSGSGTDFTLTISSLQPEDFATYYCQQSGSWPYTFGQGTKLEIKGGSEGKSSGSGSESKSTGGSEVQLVESGGGLVKPGGSLRLSCAASGFTFSRYNMNWVRQAPGKGLEWVSSISTSSNYIYYADSVKGRFTFSRDNAKNSLDLQMSGLRAEDTAIYYCTRGWGPFDYWGQGTLVTVSSEPKSSDKTHTCPPCPAPEAAGGPSVFLFPPKPKDTLMISRTPEVTCVVVSVSHEDPEVKFNWYVDGVEVHNAKTKPREEQYNSTYRVVSVLTVLHQDWLNGKEYKCKVSNKALPAPIEKTISKAKGQPREPQVYVYPPSREEMTKNQVSLTCLVKGFYPSDIAVEWESNGQPENNYKTTPPVLDSDGSFALVSKLTVDKSRWQQGNVFSCSVMHEALHNHYTQKSLSLSPG
notes: also called CD3W245-LH-scFv; DL3B279-Fab
B6: DL3B583 (bispecific antibody)
heavy: B5 heavy
light: B5 light
scFv: EVQLVESGGGLVKPGGSLRLSCAASGFTFSRYNMNWVRQAPGKGLEWVSSISTSSNYIYYADSVKGRFTFSRDNAKNSLDLQMSGLRAEDTAIYYCTRGWGPFDYWGQGTLVTVSSGGSEGKSSGSGSESKSTGGSDIQMTQSPSSLSASVGDRVTITCRARQSIGTAIHWYQQKPGKAPKLLIKYASESISGVPSRFSGSGSGTDFTLTISSLQPEDFATYYCQQSGSWPYTFGQGTKLEIKEPKSSDKTHTCPPCPAPEAAGGPSVFLFPPKPKDTLMISRTPEVTCVVVSVSHEDPEVKFNWYVDGVEVHNAKTKPREEQYNSTYRVVSVLTVLHQDWLNGKEYKCKVSNKALPAPIEKTISKAKGQPREPQVYVYPPSREEMTKNQVSLTCLVKGFYPSDIAVEWESNGQPENNYKTTPPVLDSDGSFALVSKLTVDKSRWQQGNVFSCSVMHEALHNHYTQKSLSLSPG
notes: also called CD3W245-HL-scFv; DL3B279-Fab
B7: DL3B587 (bispecific antibody, human IgG1, kappa, L234A L235A)
scFv: DIQMTQSPSSLSASVGDRVTITCRASQGISNYLAWFQQKPGKAPKSLIYAASSLQSGVPSKFSGSGSGTDFTLTISSLQPEDFATYYCQQYNSYPYTFAQGTKLEIKGGSEGKSSGSGSESKSTGGSQVQLVQSGAEVKKPGASVKVSCKASGNTFTNYYIHWVRQAPGQGLEWMGIINPSGGSTSYAQKLQGRMTMTRDTSTSTVYMELSSLRSEDTAVYFCARQGPFIGDAFDIWGQGTMVTVSSEPKSSDKTHTCPPCPAPEAAGGPSVFLFPPKPKDTLMISRTPEVTCVVVSVSHEDPEVKFNWYVDGVEVHNAKTKPREEQYNSTYRVVSVLTVLHQDWLNGKEYKCKVSNKALPAPIEKTISKAKGQPREPQVYVLPPSREEMTKNQVSLLCLVKGFYPSDIAVEWESNGQPENNYLTWPPVLDSDGSFFLYSKLTVDKSRWQQGNVFSCSVMHEALHNHYTQKSLSLS
heavy: EVQLVESGGGLVKPGGSLRLSCAASGFTFSRYNMNWVRQAPGKGLEWVSSISTSSNYIYYADSVKGRFTFSRDNAKNSLDLQMSGLRAEDTAIYYCTRGWGPFDYWGQGTLVTVSSASTKGPSVFPLAPSSKSTSGGTAALGCLVKDYFPEPVTVSWNSGALTSGVHTFPAVLQSSGLYSLSSVVTVPSSSLGTQTYICNVNHKPSNTKVDKKVEPKSCDKTHTCPPCPAPEAAGGPSVFLFPPKPKDTLMISRTPEVTCVVVSVSHEDPEVKFNWYVDGVEVHNAKTKPREEQYNSTYRVVSVLTVLHQDWLNGKEYKCKVSNKALPAPIEKTISKAKGQPREPQVYVYPPSREEMTKNQVSLTCLVKGFYPSDIAVEWESNGQPENNYKTTPPVLDSDGSFALVSKLTVDKSRWQQGNVFSCSVMHEALHNHYTQKSLSLSPG
light: DIQMTQSPSSLSASVGDRVTITCRARQSIGTAIHWYQQKPGKAPKLLIKYASESISGVPSRFSGSGSGTDFTLTISSLQPEDFATYYCQQSGSWPYTFGQGTKLEIKRTVAAPSVFIFPPSDEQLKSGTASVVCLLNNFYPREAKVQWKVDNALQSGNSQESVTEQDSKDSTYSLSSTLTLSKADYEKHKVYACEVTHQGLSSPVTKSFNRGEC
notes: also called CD3W245-Fab; DL3B279-LH-scFv

Substitutions are numbered along the chain they refer to.

For the first assay, the target named is recombinant HLA-G (human). Kind of assay: ELISA after 10 min heat treatment of the scFv supernatant. A general note: In an ELISA, binding on a coated surface is turned into a signal by an enzyme label.
Turning to B1, the “% Binding retained 55° C.” value is 103%, the “% Binding retained 60° C.” value was 122% and the “% Binding retained 65° C.” value turned out to be 11%.

As to B2, the “% Binding retained 55° C.” value came out at 85%, the “% Binding retained 60° C.” value came to 9% and the “% Binding retained 65° C.” value came out at 4%.

With B3, the “% Binding retained 55° C.” value amounted to 84%, the “% Binding retained 60° C.” value was determined as 80% and the “% Binding retained 65° C.” value came to 48%.

Turning to B4, the “% Binding retained 55° C.” value came to 14%, the “% Binding retained 60° C.” value worked out at 2% and the “% Binding retained 65° C.” value was found to be 1%.

In the next assay the target is recombinant HLA-G (human). Kind of assay: ELISA, scFv in E. coli supernatant on recombinant HLA-G.
On to B1, for which the “Room temperature binding signal” value was 1.52e+07.

As to B2, the “Room temperature binding signal” value stood at 3.07e+06.

Take B3: the “Room temperature binding signal” value was 2.75e+06.

B4: the “Room temperature binding signal” value is 5.76e+06.

A further assay concerns the target T1, DLL3 on tumor cells (SHP-77, HCC1833, G361) (human, UniProt Q9NYJ7 27-618).
T1 sequence: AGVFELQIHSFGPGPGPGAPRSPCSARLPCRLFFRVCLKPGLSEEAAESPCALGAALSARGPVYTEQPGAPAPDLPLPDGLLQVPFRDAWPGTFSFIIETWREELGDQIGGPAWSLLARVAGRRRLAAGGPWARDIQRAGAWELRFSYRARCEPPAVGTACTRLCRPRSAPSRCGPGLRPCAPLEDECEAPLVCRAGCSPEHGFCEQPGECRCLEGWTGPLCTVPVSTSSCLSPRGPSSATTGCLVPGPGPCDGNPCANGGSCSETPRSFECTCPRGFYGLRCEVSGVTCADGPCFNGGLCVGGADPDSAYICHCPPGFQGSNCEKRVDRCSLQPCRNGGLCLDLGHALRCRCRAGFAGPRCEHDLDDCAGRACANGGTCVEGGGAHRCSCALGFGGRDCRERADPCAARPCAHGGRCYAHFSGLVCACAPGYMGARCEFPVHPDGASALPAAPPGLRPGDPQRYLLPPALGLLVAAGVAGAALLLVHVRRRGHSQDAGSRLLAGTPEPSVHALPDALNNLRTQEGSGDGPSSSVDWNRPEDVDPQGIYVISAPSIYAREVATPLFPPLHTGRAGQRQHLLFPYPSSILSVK
Put plainly: cell-based or functional assay.
B5: the “Cytotoxicity, % lysis of SHP-77 cells (whole PBMCs, 1:1 ET, 30 nM)” value (“Cytotoxicity, % lysis of SHP-77 cells” below) came to 87.3%.

With B6, the “Cytotoxicity, % lysis of SHP-77 cells” value amounted to 99.8%.

In the case of B7, the “Cytotoxicity, % lysis of SHP-77 cells” value is 83.3%.

A further assay has as its target T2, recombinant human DLL3 (human, UniProt Q9NYJ7 27-492).
T2 construct: also called DLL3 antigen; Delta-like protein 3
T2 sequence: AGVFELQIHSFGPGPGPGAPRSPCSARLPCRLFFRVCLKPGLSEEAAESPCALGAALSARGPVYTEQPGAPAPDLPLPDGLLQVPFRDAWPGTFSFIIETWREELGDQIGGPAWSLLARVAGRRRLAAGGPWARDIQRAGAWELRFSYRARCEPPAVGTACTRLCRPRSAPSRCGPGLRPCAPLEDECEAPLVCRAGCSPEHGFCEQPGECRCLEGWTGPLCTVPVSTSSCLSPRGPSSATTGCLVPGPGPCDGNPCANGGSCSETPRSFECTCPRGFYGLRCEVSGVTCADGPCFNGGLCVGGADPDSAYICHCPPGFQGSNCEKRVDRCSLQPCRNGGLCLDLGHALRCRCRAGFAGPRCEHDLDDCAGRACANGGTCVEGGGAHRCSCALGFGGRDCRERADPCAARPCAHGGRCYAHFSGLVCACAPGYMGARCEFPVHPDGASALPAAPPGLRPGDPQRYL
Put plainly: SPR (Biacore T200), antibody captured by goat anti-Fc, DLL3 titrated. (In general: SPR reads the build-up and loss of mass on a sensor chip optically.)
As a reminder, the Kd is the concentration at which binding is half-saturated. For B5, the Kd was 16 pM.

In the case of B6, the Kd came out at 16 pM.

As for B7, the equilibrium dissociation constant (Kd) is 31 pM.

These data come from patent US20220411504A1 (Janssen / Centocor, published 2022).
